Results on 4 molecules are retold here after PMC9308760 (Molecular cell, 2022).

The target in data set [1] is T1, TnsB wild type (Escherichia coli (Tn7), UniProt P13989 1-702).
T1 sequence: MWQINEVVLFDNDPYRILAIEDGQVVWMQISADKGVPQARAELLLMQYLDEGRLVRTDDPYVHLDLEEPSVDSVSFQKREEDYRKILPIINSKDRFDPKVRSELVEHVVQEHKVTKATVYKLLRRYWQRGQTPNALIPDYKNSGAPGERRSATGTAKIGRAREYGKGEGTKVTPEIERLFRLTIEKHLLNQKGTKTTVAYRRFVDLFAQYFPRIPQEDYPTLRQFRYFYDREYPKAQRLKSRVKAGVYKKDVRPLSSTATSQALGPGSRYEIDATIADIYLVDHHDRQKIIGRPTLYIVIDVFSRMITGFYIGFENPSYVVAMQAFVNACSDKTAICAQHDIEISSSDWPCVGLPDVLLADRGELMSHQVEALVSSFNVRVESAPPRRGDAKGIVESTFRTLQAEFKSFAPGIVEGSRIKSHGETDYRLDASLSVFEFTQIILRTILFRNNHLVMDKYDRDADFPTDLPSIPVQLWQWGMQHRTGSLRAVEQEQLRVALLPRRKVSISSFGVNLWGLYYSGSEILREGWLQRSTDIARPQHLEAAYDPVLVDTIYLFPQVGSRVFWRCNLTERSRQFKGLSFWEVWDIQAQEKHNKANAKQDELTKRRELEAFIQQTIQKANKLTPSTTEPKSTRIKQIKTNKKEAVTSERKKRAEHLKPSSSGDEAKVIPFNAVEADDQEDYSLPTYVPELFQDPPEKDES
Description: EMSA.

In data set [2] the target is T2, TnsB Δ245-251 (Escherichia coli (Tn7), UniProt P13989 1-702, del245-251).
T2 sequence: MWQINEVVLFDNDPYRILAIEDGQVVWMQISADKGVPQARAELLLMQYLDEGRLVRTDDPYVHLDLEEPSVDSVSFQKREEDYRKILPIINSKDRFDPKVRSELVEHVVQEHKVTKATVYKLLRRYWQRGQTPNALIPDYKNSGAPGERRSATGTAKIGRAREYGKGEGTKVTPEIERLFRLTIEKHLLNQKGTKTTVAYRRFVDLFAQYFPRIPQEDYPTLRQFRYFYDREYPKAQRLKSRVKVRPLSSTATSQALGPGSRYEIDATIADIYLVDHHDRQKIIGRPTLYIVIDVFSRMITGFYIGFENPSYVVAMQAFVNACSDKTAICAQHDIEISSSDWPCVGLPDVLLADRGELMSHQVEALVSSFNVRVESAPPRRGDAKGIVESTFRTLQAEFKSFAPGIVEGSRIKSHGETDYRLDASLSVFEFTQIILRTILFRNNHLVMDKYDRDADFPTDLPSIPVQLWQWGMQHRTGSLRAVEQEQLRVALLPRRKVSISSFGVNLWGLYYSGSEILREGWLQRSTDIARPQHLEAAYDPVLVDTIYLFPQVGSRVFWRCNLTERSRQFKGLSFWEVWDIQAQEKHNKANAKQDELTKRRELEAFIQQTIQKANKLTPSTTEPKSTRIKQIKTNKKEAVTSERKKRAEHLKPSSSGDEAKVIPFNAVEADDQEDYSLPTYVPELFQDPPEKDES
Description: EMSA. Background: Mobility shift assays separate free from complexed probe on a gel.

Data set [3] deals with the molecule itself. Description: cryo-EM structure.
Data set [4] concerns the molecule itself. Description: negative-stain EM.

The Kd is the concentration at which binding is half-saturated. Read a low Kd as tighter binding.

B1: 2BSL (dsDNA)
DNA 1: CCCAGTTCCCATCTATTTTGTCACTCTTCCCTAAATAATCCTTAAAAACTCCATTTCCACCCCTCCCAGTTCCCAACTATTTTGTCCGCCCACA
DNA 2: TGTGGGCGGACAAAATAGTTGGGAACTGGGAGGGGTGGAAATGGAGTTTTTAAGGATTATTTAGGGAAGAGTGACAAAATAGATGGGAACTGGG
For B1, in data set [1], binding was characterised by a dissociation constant (Kd) of 85 ± 4 nM.

B2: 3BS (dsDNA)
DNA 1: CTAGTTTAAGACTTTATTGTCATAGTTTAGATCTATTTTGTTCAGTTTAAGACTTTATTGTCCGCCCACA
DNA 2: TGTGGGCGGACAATAAAGTCTTAAACTGAACAAAATAGATCTAAACTATGACAATAAAGTCTTAAACTAG
As for B2, the binding result in data set [2] was “binds”.

B3: Tn7 transposase TnsB (E. coli), wild type (enzyme, UniProt P13989 1-702, looked up)
chain: T1 sequence
As for B3, the binding result in data set [3] is reported as “binds”.

B4: TnsB variant with a shorter DBD2-CD linker (Δ245–251) (enzyme, E. coli)
chain: T2 sequence
In the case of B4, the binding result in data set [4] is “binds”.
